The text below walks through data of patent US12427212B2, “Nectin-4 binding miniproteins, conjugates and uses thereof” (Aktis Oncology, Inc., priority 2023, dated 2025).

Where two headings read alike, the source gives them in different places. Bridges are numbered along the chain shown (N, C = ends). The star is where a group is joined. DOTA = O=C(O)CN1CCN(CC(=O)O)CCN(CC(=O)*)CCN(CC(=O)O)CC1; PEG4 = NCCOCCOCCOCCOCCC(=O)O

Data set [1] deals with HT-1376-cells ("Parental", which express Nectin-4). Briefly: In vivo efficacy in cell-line derived xenograft (CDX) model, HT-1376 parental. The following applies: 3 mg/kg IV QWx3; versus vehicle. Further details: species or system mouse. As to the method: In vivo efficacy study experiments were performed in tumor bearing athymic nude mice. […] Tumors were monitored for a minimum of 14 days prior to group stratification and study initiation dates.
Dose measurements for a sample injected dose were measured and confirmed on a gamma counter and corrected for decay. EV doses were calculated based on mouse weights and liquid concentration of prepared material. Indicated doses of vehicle, EV or radiolabeled C251 were prepared corresponding to the indicated administered dose levels per group. Doses were administered via tail vein injection while restrained and awake.
Animal monitoring: Tumor volume (caliper measurement) and body weight measurements for enrolled mice were performed twice a week for an initial planned monitoring period of 8 weeks. More frequent gross observations of mice were performed.
Hunan endpoints: Mice remained on study until they reached the end of the 8-week monitoring period or a number of pre-defined humane endpoints, including: • 1. An increase in tumor volume size that exceeds >1500 mm^3, or 20 mm in one dimension, or tumor becomes ulcerated or necrotic. • 2. A decrease in body weight ≥20% from maximum recorded weight. • 3. Any signs of pain or distress (i.e., consistent hunched posture, rough coat, squinted eyes, slowed gait). • 4. Tumors that compromise mobility or ability to eat or drink. • 5. BCS score ≤2. […]

The next data set has as its target T1, Nectin-4 (Homo sapiens, UniProt Q96NY8).
T1 sequence (Q96NY8 32-510): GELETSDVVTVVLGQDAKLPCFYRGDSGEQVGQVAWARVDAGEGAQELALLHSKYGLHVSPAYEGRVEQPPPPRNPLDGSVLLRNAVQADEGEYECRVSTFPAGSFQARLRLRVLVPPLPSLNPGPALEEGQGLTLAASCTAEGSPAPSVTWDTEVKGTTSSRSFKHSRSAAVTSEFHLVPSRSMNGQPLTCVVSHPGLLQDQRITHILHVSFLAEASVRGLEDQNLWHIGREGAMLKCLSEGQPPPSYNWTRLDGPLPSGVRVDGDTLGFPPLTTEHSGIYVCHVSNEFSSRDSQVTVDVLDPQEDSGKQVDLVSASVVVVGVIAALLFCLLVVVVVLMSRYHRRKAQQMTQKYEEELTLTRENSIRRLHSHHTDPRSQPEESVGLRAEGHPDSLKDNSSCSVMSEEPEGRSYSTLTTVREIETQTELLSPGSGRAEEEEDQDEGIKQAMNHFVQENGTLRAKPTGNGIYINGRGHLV
The following applies: cited from earlier work.

For data set [2], the system named is HT-1376 urothelial cancer cells. As to the kind of experiment: Radioligand binding of lutetium-177 radioconjugates, saturation and kinetic analysis. More on the design: species or system human. The following applies: lutetium-177 radioconjugates of PEG4-DOTA compounds, HT-1376 cells, global fit of association and dissociation. As to the method: Radioligand binding was performed in HT-1376 urothelial cancer cells by method of saturation. Cells were seeded at 20,000 cells per well in 96-well format 48 h prior to assay. Lutetium-177-labeled radioconjugates of C215 and C117 were incubated with cells at 4° C. for 1 h at various increasing concentrations of radioligand. At the end of incubation, cells were washed three times with PBS and radioactivity was quantified by gamma counting as shown in FIGS. 4A-5B.
Radioligand binding was performed in HT-1376 urothelial cancer cells by method of kinetic analysis. Cells were seeded at 20,000 cells per well in 96-well format 48 h prior to assay. On the day of assay, culture medium was removed and PBS was added to cells. Association kinetics were measured at three concentrations of radioligand, and this was performed by the addition of lutetium-177 radioconjugates to cells at various time points from 1 to 60 minutes.

The subject of a further data set is HT-1376 tumor xenograft. As to the kind of experiment: In vivo biodistribution of 111In-labeled miniproteins by SPECT/CT, HT-1376 xenograft. More on the design: species or system mouse. The note with it: 111In-labeled, tumor, +4 h, HT-1376 xenograft mice. The essentials: (§1)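 Mice bearing HT-1376 (Nectin-4-expressing human) xenografts imaged by SPECT/CT after 111In-labeled miniprotein dosing. SPECT reported as activity; per-subject maximum intensity projections scaled in % ID/g at each time point.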

Assay in data set [3]: as above
The note with it: female, athymic nude, mouse, in vivo. Further details: species or system mouse. The method in brief: as §1

For data set [4], the system named is HT-1376 urothelial cancer cells. Briefly: In vitro cell cytotoxicity assay of 225Ac-radioconjugates (CellTiter-Glo). The data set is classed as cell-based, human. The note with it: compound radiolabeled with 225Ac, 24 h treatment, 4-5 day regrowth, HT-1376 cells. As to the method: Cytotoxicity to ^225Ac-radioconjugates was assessed in HT-1376 urothelial cancer cells. Cells were seeded in 96-well plates at densities of 250 to 1000 cells per well two days prior to treatment. On the day of treatment ^225Ac-radioconjugates were diluted in culture medium to concentrations ranging from 0,0001 to 100 μCi/mL and treatment solutions were incubated with cells for 24 h. At the end of the treatment period, the treatment solution was removed, and fresh culture medium was replenished for the regrowth period of the assay that lasted 4-5 day's. At the end of the regrowth period the culture medium was removed and viability was assessed by CellTiter-Glo (Promega, Waltham MA) luminescent assay and the plates were read on a Perkin Elmer Enspire multimode plate reader. Data were normalized to treatment controls and plotted as non-linear sigmoidal dose response curves to determine the effective concentration for 50% reduction in cell viability.

The conditions of data set [5]: previously published; cited from earlier work.
Where [6] appears, read: PhII trial, locally advanced or metastatic bladder cancer, 10.2 months median follow up.

For the substance enfortumab vedotin [EV], in data set [1], the Tumor volume entry is “Some reduction in tumor volume”. Moreover, in the data set with Nectin-4 (PhI study, patients previously treated with ICI therapy), the “overall tumor objective response rate (ORR)” value is listed as 42%. Further, the ORR with Nectin-4 (PhI study, patients with particularly high tumor burden (liver metastases)) is 36%; in the data set with Nectin-4 (setting [6]), 44%. Also, the “complete response rate (CRR)” value in the data set with Nectin-4 (setting [6]) was 12%.
On to “{DOTA-PEG4}-CEYDEEFFTALKRLRGGDICYYIQAKFQYLPKLCIEEILDNLGCS-OH (disulfide 1-34, 20-44 (inferred)) [Compound C117]”, for which the Kd in data set [2] stood at 2.64 nM. The “Data of Biodistribution (+4 h Tumor~% ID/g)” value with HT-1376 tumor xenograft amounted to 2.29 % ID/g. Also, in data set [3], the tissue uptake at 4 h was 150 %ID/g and the tissue uptake at 24 h was found to be 93.3 %ID/g. Further, the “EC50 (microcurie/milliliter) for 225Ac radioconjugates” value in data set [4] came to 0.014 microcurie/milliliter.
Turning to enfortumab vedotin, in data set [5], the “Plasma terminal half-life (min)” value is recorded as 2,476.8 (1.72 days) min.
